The term IC50 denotes the point on the concentration scale where inhibition reaches its midpoint.

Here are results for two molecules from paper PMC2647743 (Bioconjugate chemistry, 2008).

*: point of attachment. DOTA = O=C(O)CN1CCN(CC(=O)O)CCN(CC(=O)*)CCN(CC(=O)O)CC1; Aoc = NCCCCCCCC(=O)O

The target of the test is BB2 receptor (gastrin-releasing peptide receptor) (human (endogenous in PC-3), UniProt P30550 1-384). As to the kind of experiment: radioligand binding.
BB2 receptor (gastrin-releasing peptide receptor), sequence (P30550 whole entry): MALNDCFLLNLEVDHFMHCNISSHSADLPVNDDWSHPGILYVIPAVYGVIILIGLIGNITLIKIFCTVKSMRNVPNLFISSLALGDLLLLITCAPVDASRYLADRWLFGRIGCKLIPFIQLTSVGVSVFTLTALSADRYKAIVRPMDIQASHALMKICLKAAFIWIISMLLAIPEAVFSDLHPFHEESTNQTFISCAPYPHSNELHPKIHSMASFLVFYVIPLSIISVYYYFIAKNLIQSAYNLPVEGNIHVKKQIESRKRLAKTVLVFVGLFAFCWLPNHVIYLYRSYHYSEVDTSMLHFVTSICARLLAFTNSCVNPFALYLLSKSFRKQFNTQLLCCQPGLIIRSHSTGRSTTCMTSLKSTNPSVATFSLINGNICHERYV

For {DOTA-Aoc}-HMGWLAQV-NH2 (also: In complex of DOTA) [In-DOTA-8-AOC-NONSENSE], the IC50 is more than 10 µM.

B1: DOTA-8-AOC-NONSENSE (peptide)
peptide: {DOTA-Aoc}-HMGWLAQV-NH2
SMILES: CSCC[C@H](NC(=O)[C@H](Cc1c[nH]cn1)NC(=O)CCCCCCCNC(=O)CN1CCN(CC(=O)O)CCN(CC(=O)O)CCN(CC(=O)O)CC1)C(=O)NCC(=O)N[C@@H](Cc1c[nH]c2ccccc12)C(=O)N[C@@H](CC(C)C)C(=O)N[C@@H](C)C(=O)N[C@@H](CCC(N)=O)C(=O)N[C@H](C(N)=O)C(C)C
With B1, the IC50 is more than 10 µM.
